The values that follow come from patent US12168063B2, “Stable, concentrated radionuclide complex solutions” (Advanced Accelerator Applications SA, priority 2018, dated 2024).

For data set [1] the following is noted: after 72 hours at 25° C.
A short description of data set [2]: Stability study after storage: chemical purity (peptide purity) by RP-UV-HPLC. Format: physicochemical.

“hydrogen [N-{[4,7,10-tris(carboxylato-κO-methyl)-1,4,7,10-tetraazacyclododecan-1-yl-κ^4N^1,N^4,N^7,N^10]acetyl-κO}-D-phenylalanyl-L-cysteinyl-tyrosyl-D-tryptophyl-L-lysyl-L-threonyl-L-cysteinyl-L-threoninato cyclic (2→7)-disulfide(4-)](177Lu)lutetate(1-) [^177Lu-DOTA-TATE]”: the radiochemical purity result in data set [1] is recorded as “at least 95%”.

On to `C[C@@H](O)[C@H](NC(=O)[C@@H]1CSSC[C@H](NC(=O)[C@@H](Cc2ccccc2)NC(=O)CN2CCN(CC(=O)O)CCN(CC(=O)O)CCN(CC(=O)O)CC2)C(=O)N[C@@H](Cc2ccc(O)cc2)C(=O)N[C@H](Cc2c[nH]c3ccccc23)C(=O)N[C@@H](CCCCN)C(=O)N[C@@H]([C@@H](C)O)C(=O)N1)C(=O)O` [DOTA-TATE, DOTA-d-Phe-Cys-Tyr-d-Trp-Lys-Thr-Cys-Thr (cyclo 2,7)], for which the “stability with respect to chemical purity” value in data set [2] (32° C. for 12 h and 25° for 60 h) is “such high stability was found”. The chemical purity in data set [2] (after 48 hours at 32° C.) and in data set [2] (after 72 hours at 25° C.) was 100% throughout.
